Where a chain is given by its changes, count along the chain named. Names may count otherwise.
T1: human Fcγ receptor hFcgRIIa (R) (human, UniProt P12318 36-217)
T1 construct: also called FcγRIIa (type R); FcγIIA
T1 chain: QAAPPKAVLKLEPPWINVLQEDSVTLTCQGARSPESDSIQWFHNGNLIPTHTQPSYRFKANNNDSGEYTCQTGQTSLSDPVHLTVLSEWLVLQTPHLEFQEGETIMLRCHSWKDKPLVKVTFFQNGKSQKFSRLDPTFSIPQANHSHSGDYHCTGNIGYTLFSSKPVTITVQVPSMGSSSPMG

T2: human Fcγ receptor hFcgRIIb (human, UniProt P31994 43-217, limits assumed)
T2 construct: Construct used in the SPR assay is not described; also called FcγRIIb; FcγIIB
T2 sequence: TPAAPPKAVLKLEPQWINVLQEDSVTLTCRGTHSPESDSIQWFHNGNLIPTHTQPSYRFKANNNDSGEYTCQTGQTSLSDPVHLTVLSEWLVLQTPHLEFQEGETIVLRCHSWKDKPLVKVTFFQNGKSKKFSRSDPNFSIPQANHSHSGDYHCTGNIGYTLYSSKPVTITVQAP

T3: human Fcγ receptor hFcgRIIa (H) (human, UniProt P12318 36-217)
T3 construct: also called FcγRIIa (type H); FcγIIA
T3 sequence: T1 chain with R133H

B1: TS20 (antibody)
heavy: QVQLQESGPGLVRPSQTLSLTCTVSGYSITSDHAWSWVRQPPGRGLEWIGYISYSGITTYNPSLKSRVTMLRDTSKNQFSLRLSSVTAADTAVYYCARSLARTTAMDYWGQGSLVTVSSASTKGPSVFPLAPSSKSTSGGTAALGCLVKDYFPEPVTVSWNSGALTSGVHTFPAVLQSSGLYSLSSVVTVPSSSLGTQTYICNVNHKPSNTKVDKKVEPKSCDKTHTCPPCPAPELLGGPSVFLFPPKPKDTLMISRTPEVTCVVVDVSHEDPEVKFNWYVDGVEVHNAKTKPREEMYNSTYRVVSVLTVLHQDWLNGKEYKCKVSNSALPHPIEKTISKAKGQPREPQVYTLPPSRDELTKNQVSLTCLVKGFYPSDIAVEWESNGQPENNYKTTPPVLDSDGSFFLYSKLTVDKSRWQQGNVFSCSVMHEALHNHYTQKSLSLSP
light: not shown
notes: anti-IL6R IgG1, G1d with Q295M/K326S/A330H (EU)
B2: TS30 (antibody)
heavy: B1 heavy with L236K, L237K, S241K, Y298G, S300G, N327G, S328K, H332A
light: not shown
notes: anti-IL6R IgG1, G1d with L234K/L235K/S239K/Q295M/Y296G/S298G/N325G (EU)
B3: TS33 (antibody)
heavy: B1 heavy with L236K, L237K, H270K, D272F, Y298G, S300G, N327H, S328K, H332A
light: not shown
notes: anti-IL6R IgG1, G1d with L234K/L235K/H268K/D270F/Q295M/Y296G/S298G/N325H (EU)
B4: TS22 (antibody)
heavy: B1 heavy with M297L
light: not shown
notes: anti-IL6R IgG1, G1d with Q295L/K326S/A330H (EU)
B5: TS37 (antibody)
heavy: B1 heavy with L236K, L237R, S241K, H270K, D272F, Y298G, S300G, N327H, S328K, H332A
light: not shown
notes: anti-IL6R IgG1, G1d with L234K/L235R/S239K/H268K/D270F/Q295M/Y296G/S298G/N325H (EU)
B6: TS32 (antibody)
heavy: B1 heavy with L236K, L237K, H270K, D272F, Y298G, S300G, N327G, S328K, H332A
light: not shown
notes: anti-IL6R IgG1, G1d with L234K/L235K/H268K/D270F/Q295M/Y296G/S298G/N325G (EU)
B7: TS36 (antibody)
heavy: B1 heavy with L236K, L237R, S241K, H270K, D272F, Y298G, S300G, N327G, S328K, H332A
light: not shown
notes: anti-IL6R IgG1, G1d with L234K/L235R/S239K/H268K/D270F/Q295M/Y296G/S298G/N325G (EU)
B8: TS31 (antibody)
heavy: B1 heavy with L236K, L237K, S241K, Y298G, S300G, N327H, S328K, H332A
light: not shown
notes: anti-IL6R IgG1, G1d with L234K/L235K/S239K/Q295M/Y296G/S298G/N325H (EU)
B9: TS34 (antibody)
heavy: B1 heavy with L236K, L237K, Y298G, S300G, N327G, S328K, H332A
light: not shown
notes: anti-IL6R IgG1, G1d with L234K/L235K/Q295M/Y296G/S298G/N325G (EU)
B10: TS25 (antibody)
heavy: B1 heavy with S328A
light: not shown
notes: anti-IL6R IgG1, G1d with Q295M/K326A/A330H (EU)
B11: TS24 (antibody)
heavy: B1 heavy with H332Y
light: not shown
notes: anti-IL6R IgG1, G1d with Q295M/K326S/A330Y (EU)

molecular target: T4, human Fcγ receptor hFcgRIa (human, UniProt P12314 16-292, limits assumed); assay: SPR, antibody captured on Protein A
T4 construct: Construct used in the SPR assay is not described; also called hFcγRIa; FcγI
Procedure: (§1) Furthermore, binding ability to hFcgRs was measured by the method described in Reference Example 3.
(§2) Interactions between antibodies and hFcgRs (hFcgRIa, hFcgRIIa(R), hFcgRIIa(H), hFcgRIIb, hFcgRIIIa(F), and hFcgRIIIa(V)) were analyzed using Biacore T100 (GE Healthcare). HBS-EP+(GE Healthcare) was used for the running buffer, and the measurement temperature was set at 25° C. Protein A (Invitrogen) was immobilized by the amino coupling method, and an antibody of interest was captured thereon. Then, hFcγR solutions diluted using the running buffer were injected to allow interaction with the captured antibody at a flow rate of 30 μL/min for five minutes for hFcγRIa, and at a flow rate of 5 μL/min for one minute for the other hFcγRs. […] Since the hFcγR binding level depends on the amount of captured antibodies, the FcgR-binding levels were corrected so that the capture level of each antibody would be 200 RU (resonance unit) for hFcgRIa and 1000 RU (resonance unit) for the other hFcgRs. The captured antibodies were washed by allowing 10 mM glycine-HCl (pH 1.5) to react for 30 seconds at a flow rate of 30 μL/min to recycle the chip for reuse.

T4 sequence (P12314 16-292 limits assumed): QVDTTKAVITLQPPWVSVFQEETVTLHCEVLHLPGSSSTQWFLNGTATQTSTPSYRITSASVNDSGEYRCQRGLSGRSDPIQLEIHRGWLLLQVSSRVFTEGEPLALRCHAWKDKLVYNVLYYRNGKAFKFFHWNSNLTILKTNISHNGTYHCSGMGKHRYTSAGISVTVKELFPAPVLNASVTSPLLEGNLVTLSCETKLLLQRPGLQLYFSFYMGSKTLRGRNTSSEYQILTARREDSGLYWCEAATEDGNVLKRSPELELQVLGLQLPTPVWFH

binding relative to G1 (=100)	Binder
106	B1
0.1	B2
-0.9	B3
108	B4
0.6	B5
-0.5	B6
-0.4	B7
0.2	B8
-0.9	B9
105	B10
107	B11

Molecular target: T1, human Fcγ receptor hFcgRIIa (R)
Assay: SPR, antibody captured on Protein A
Procedure: as §1, §2

binding relative to G1 (=100)	Binder
116	B1
1.2	B2
1.2	B3
153	B4
0.9	B5
0.9	B6
1	B7
1.3	B8
0.9	B9
123	B10
107	B11

molecular target: T2, human Fcγ receptor hFcgRIIb; assay: SPR, antibody captured on Protein A
Procedure: as §1, §2

binding relative to G1 (=100)	Binder
131	B1
3.8	B2
4.6	B3
232	B4
4.5	B5
1.5	B6
4.1	B7
3.6	B8
4.2	B9
137	B10
114	B11

molecular target: T5, human Fcγ receptor hFcgRIIIa (V) (human, UniProt P08637 17-208); assay: SPR, antibody captured on Protein A
T5 construct: also called FcγRIIIa allotype V158; FcγIIIA
Procedure: as §1, §2

T5 sequence (P08637 other isoform, or with tags, fused parts or gaps limits assumed): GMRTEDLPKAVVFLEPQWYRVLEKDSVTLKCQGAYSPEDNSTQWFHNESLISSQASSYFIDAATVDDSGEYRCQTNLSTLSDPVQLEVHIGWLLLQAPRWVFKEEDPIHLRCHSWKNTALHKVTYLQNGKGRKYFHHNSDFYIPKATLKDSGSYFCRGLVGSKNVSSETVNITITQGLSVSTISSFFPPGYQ

binding relative to G1 (=100)	Binder
91.2	B1
1.1	B2
1	B3
107	B4
0.6	B5
0.9	B6
1.1	B7
1.2	B8
1.5	B9
92.8	B10
121	B11

molecular target: T3, human Fcγ receptor hFcgRIIa (H); assay: SPR, antibody captured on Protein A
Procedure: as §1, §2

binding relative to G1 (=100)	Binder
132	B1
0.2	B2
0.7	B3
157	B4
0.7	B5
1	B6
0.7	B7
-0.5	B8
1.4	B9
125	B10
122	B11

Reference: US20200181257A1 (Chugai, published 2020)
